According to patent US20200087416A1 (Innovent, published 2020):
Numbering of substitutions follows the chain as printed. One block for each binder: values may come before it.

Columns and labels:
[1] = biological target: T1, human PCSK9 (PCSK9 antigen, SEQ ID NO. 53) (human, UniProt A8T644 31-152; Q8NBP7 153-692, Biotin-labelled on amines in the MSD-SET and sorting experiments; positions not given.); experiment: cell-based or functional assay
[2] = biological target: T1, human PCSK9 (PCSK9 antigen, SEQ ID NO. …); experiment: BLI (ForteBio), IgG on AHQ sensor, 100 nM antigen
[3] = biological target: T1, human PCSK9 (PCSK9 antigen, SEQ ID NO. …); experiment: flow cytometry, PCSK9 left on CHO-LDLR cells (anti-His-FITC) after premix with 1 nM antibody
[4] = biological target: T1, human PCSK9 (PCSK9 antigen, SEQ ID NO. …); experiment: flow cytometry, PCSK9 left on CHO-LDLR cells (anti-His-FITC) after premix with 10 nM antibody
[5] = biological target: T1, human PCSK9 (PCSK9 antigen, SEQ ID NO. …); experiment: flow cytometry, PCSK9 left on CHO-LDLR cells (anti-His-FITC) after premix with 0.1 nM antibody
[6] = biological target: T1, human PCSK9 (PCSK9 antigen, SEQ ID NO. …); experiment: flow cytometry, PCSK9 left on CHO-LDLR cells (anti-His-FITC) after premix with 100 nM antibody
[7] = biological target: T1, human PCSK9 (PCSK9 antigen, SEQ ID NO. …); experiment: flow cytometry, PCSK9 left on CHO-LDLR cells (anti-His-FITC) after premix with 1000 nM antibody
[8] = biological target: T2, murine PCSK-9 (murine, UniProt Q80W65 35-694); experiment: BLI (ForteBio), IgG on AHQ sensor, 100 nM antigen
T2 construct: also called mouse PCSK9

B1: Lodelcizumab (antibody, V domains shown)
VH: QVQLVQSGAEVKKPGASVKVSCKASGYTFSTMYMSWVRQAPGQGLEWMGRIDPANEHTNYAQKFQGRVTMTRDTSISTAYMELSRLTSDDTAVYYCARSYYYYNMDYWGQGTLVTVSS
VL: QIVLTQSPATLSVSPGERATLSCRASQSVSYMHWYQQKPGQAPRLLIYGVFRRATGIPDRFSGSGSGTDFTLTIGRLEPEDFAVYYCLQWSSDPPTFGQGTKLEIK
BODIPY-LDL uptake by HepG2 cells, fluorescence, 4.2 nM, replicate 1 [1]: 0.318
BODIPY-LDL uptake by HepG2 cells, fluorescence, 4.2 nM, replicate 2 [1]: 0.352
BODIPY-LDL uptake by HepG2 cells, fluorescence, 16.8 nM, replicate 1 [1]: 0.317
BODIPY-LDL uptake by HepG2 cells, fluorescence, 16.8 nM, replicate 2 [1]: 0.314
BODIPY-LDL uptake by HepG2 cells, fluorescence, 66.7 nM, replicate 1 [1]: 0.33
BODIPY-LDL uptake by HepG2 cells, fluorescence, 66.7 nM, replicate 2 [1]: 0.312
Kd [2]: 1.51 nM
Fluorescence Signal Value [3]: 8760
Fluorescence Signal Value [4]: 7330
Fluorescence Signal Value [5]: 8400
Fluorescence Signal Value [6]: 8760
Fluorescence Signal Value [7]: 7330

B2: Bococizumab (antibody, V domains shown)
VH: QVQLVQSGAEVKKPGASVKVSCKASGYTFTSYYMHWVRQAPGQGLEWMGEISPFGGRTNYNEKFKSRVTMTRDTSTSTVYMELSSLRSEDTAVYYCARERPLYASDLWGQGTTVTVSS
VL: DIQMTQSPSSLSASVGDRVTITCRASQGISSALAWYQQKPGKAPKLLIYSASYRYTGVPSRFSGSGSGTDFTFTISSLQPEDIATYYCQQRYSLWRTFGQGTKLEIK
Kd [2]: 0.386 nM
Kd [8]: 0.663 nM
Fluorescence Signal Value [3]: 6960
Fluorescence Signal Value [4]: 6270
Fluorescence Signal Value [5]: 7100
Fluorescence Signal Value [6]: 5310
Fluorescence Signal Value [7]: 6040

B3: ADI-02396 (antibody, human IgG2, kappa, V domains shown)
VH: QLQLQESGPGLVKPSETLSLTCTVSGGSISSSSYYWGWIRQPPGKGLEWIGSIYYSGSTYYNPSLKSRVTISVDTSKNQFSLKLSSVTAADTAVYYCAREGSGVVPAAGPNWFDPWGQGTLVTVSS
VL: EIVLTQSPATLSLSPGERATLSCRASQSVSSYLAWYQQKPGQAPRLLIYDASNRATGIPARFSGSGSGTDFTLTISSLEPEDFAVYYCQQRRNWFTFGGGTKVEIKR
notes: IgG; also called parent antibody
BODIPY-LDL uptake by HepG2 cells, fluorescence, 4.2 nM, replicate 1 [1]: 0.366
BODIPY-LDL uptake by HepG2 cells, fluorescence, 4.2 nM, replicate 2 [1]: 0.352
BODIPY-LDL uptake by HepG2 cells, fluorescence, 16.8 nM, replicate 1 [1]: 0.404
BODIPY-LDL uptake by HepG2 cells, fluorescence, 16.8 nM, replicate 2 [1]: 0.341
BODIPY-LDL uptake by HepG2 cells, fluorescence, 66.7 nM, replicate 1 [1]: 0.432
BODIPY-LDL uptake by HepG2 cells, fluorescence, 66.7 nM, replicate 2 [1]: 0.401
Kd [2]: 9.5 nM
Kd [8]: 78.3 nM

B4: ADI-10090 (antibody, human IgG2, kappa, V domains shown)
VH: B3 VH with S30W, G37T, Y54N, S56R, G101N
VL: B3 VL
notes: IgG
Kd [2]: 0.352 nM
Kd [8]: 0.674 nM
Fluorescence Signal Value [3]: 6750
Fluorescence Signal Value [4]: 5810
Fluorescence Signal Value [5]: 6810
Fluorescence Signal Value [6]: 4810
Fluorescence Signal Value [7]: 4820

Stronger by Kd [2], values ahead:

Kd [2]: 0.336 nM
Kd [8]: 0.607 nM
Fluorescence Signal Value [3]: 6920
Fluorescence Signal Value [4]: 5830
Fluorescence Signal Value [5]: 6600
Fluorescence Signal Value [6]: 5130
Fluorescence Signal Value [7]: 5270
B5: ADI-10086 (antibody, human IgG2, kappa, V domains shown)
VH: B3 VH with S30R, S33A, Y54N, S56R, G101N, D114G
VL: B3 VL
notes: IgG

BODIPY-LDL uptake by HepG2 cells, fluorescence, 4.2 nM, replicate 1 [1]: 0.364
BODIPY-LDL uptake by HepG2 cells, fluorescence, 4.2 nM, replicate 2 [1]: 0.37
BODIPY-LDL uptake by HepG2 cells, fluorescence, 16.8 nM, replicate 1 [1]: 0.396
BODIPY-LDL uptake by HepG2 cells, fluorescence, 16.8 nM, replicate 2 [1]: 0.392
BODIPY-LDL uptake by HepG2 cells, fluorescence, 66.7 nM, replicate 1 [1]: 0.686
BODIPY-LDL uptake by HepG2 cells, fluorescence, 66.7 nM, replicate 2 [1]: 0.716
Kd [2]: 0.0301 nM
Kd [8]: 2.66 nM
Fluorescence Signal Value [3]: 6980
Fluorescence Signal Value [4]: 5750
Fluorescence Signal Value [5]: 7170
Fluorescence Signal Value [6]: 4950
Fluorescence Signal Value [7]: 4930
B6: Alirocumab (antibody, V domains shown)
VH: EVQLVESGGGLVQPGGSLRLSCAASGFTFNNYAMNWVRQAPGKGLDWVSTISGSGGTTNYADSVKGRFIISRDSSKHTLYLQMNSLRAEDTAVYYCAKDSNWGNFDLWGRGTLVTVSS
VL: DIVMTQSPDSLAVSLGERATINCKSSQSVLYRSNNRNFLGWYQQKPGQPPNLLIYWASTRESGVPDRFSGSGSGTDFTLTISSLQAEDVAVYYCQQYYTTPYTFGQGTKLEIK
